Drawing on publication PMC4368477, this text covers koff and kon for one substance.

In this assay the target is HA head of H1N1 A/Solomon Islands/3/2006 (Influenza A virus, A/Solomon Islands/3/2006 (H1N1)). Briefly: BLI. (Biolayer interferometry detects binding as a change in optical thickness at a sensor tip.)

Usually koff stands for the first-order rate constant of dissociation. The low end stands for slow dissociation, the high end for fast dissociation. As usually defined, the kon is a measure of how fast the partners come together. A lower kon goes with slower complex formation. CH65 Fab displayed a koff of 0.013 s⁻¹ and a kon of 42900 M⁻¹ s⁻¹.
